Changes are numbered by the printed parent chain.
B1: 1G8-1A7 scFv (scFv, V domains shown)
VH: EVQLVESGGGLVQPGGSLRLSCAASGYTFDSYAMSWVRQAPGKGLEWVSRIKTTDDGKSYADSVKGRFTISRDNSKNTLYLQMNSLRAEDTAVYYCARQTEDRSYGYDLDYWGQGTLVTVSS
VL: DIQMTQSPSSLSASVGDRVTITCRASQGISSYLAWYQQKPGKAPKLLIYAASSLQSGVPSRFSGSGSGTDFTLTISSLQPEDFATYYCQQHYTTPPTFGQGTKVEIKR
notes: phage clone supernatant
B2: 1G8-2D7 scFv (scFv, V domains shown)
VH: B1 VH with Y27D, T28S, D30T, K52S, T53A, T54D, D55S, D56A, G57S, K58P
VL: B1 VL
notes: phage clone supernatant
B3: 1G8-1B7 scFv (scFv, V domains shown)
VH: EVQLVESGGGLVQPGGSLRLSCAASGYSFSNYAMSWVRQAPGKGLEWVSRISAWGSTNNYADSVKGRFTISRDNSKNTLYLQMNSLRAEDTAVYYCARQTEDRSYGYDLDYWGQGTLVTVSS
VL: B1 VL
notes: phage clone supernatant
B4: 1G8-1F11 scFv (scFv, V domains shown)
VH: B3 VH with Y27D, S28T, N31S, A53Q, W54T, S56G, N58T, N59D
VL: B1 VL
notes: phage clone supernatant
B5: 1G8-1D11 scFv (scFv, V domains shown)
VH: B1 VH with Y27D, T28I, D30T, S31G, K52D, T53G, D55G, G57S, S59F
VL: B1 VL
notes: phage clone supernatant
B6: 1G8-2C6 scFv (scFv, V domains shown)
VH: B3 VH with Y27D, S28N, N31S, S52Y, A53G, W54S, G55D, N58P, N59D
VL: B1 VL
notes: phage clone supernatant
B7: 1G8-1C8 scFv (scFv, V domains shown)
VH: EVQLVESGGGLVQPGGSLRLSCAASGFSFGSSAMSWVRQAPGKGLEWVSAISGSSDSPRYADSVKGRFTISRDNSKNTLYLQMNSLRAEDTAVYYCARQTEDRSYGYDLDYWGQGTLVTVSS
VL: B1 VL
notes: phage clone supernatant
B8: 1G8-2A4 scFv (scFv, V domains shown)
VH: EVQLVESGGGLVQPGGSLRLSCAASGDTFSSNAMSWVRQAPGKGLEWVSRIYGGSWDTDYADSVKGRFTISRDNSKNTLYLQMNSLRAEDTAVYYCARQTEDRSYGYDLDYWGQGTLVTVSS
VL: B1 VL
notes: phage clone supernatant
B9: 1G8-2A11 scFv (scFv, V domains shown)
VH: B3 VH with Y27D, S30Y, A33S, A53S, W54D, S56W, T57E, N58T, N59F
VL: B1 VL
notes: phage clone supernatant
B10: 1G8-1C1 scFv (scFv, V domains shown)
VH: B3 VH with S28I, A53T, W54G, G55F, S56A, T57G, N58P, N59D
VL: B1 VL
notes: phage clone supernatant
B11: 1G8-1A12 scFv (scFv, V domains shown)
VH: B1 VH with Y27G, S31T, Y32N, R50A, K52S, T54G, D55G, G57N, S59R
VL: B1 VL
notes: phage clone supernatant
B12: 1G8-1H1 scFv (scFv, V domains shown)
VH: B8 VH with S31G, N32Y, G53P, G54Y, W56S, D57V, T58R
VL: B1 VL
notes: phage clone supernatant
B13: 1G8-1F7 scFv (scFv, V domains shown)
VH: B3 VH with S30Y, N31G, R50A, S52D, W54I, S56G, T57N, N58K, N59R
VL: B1 VL
notes: phage clone supernatant
B14: 1G8-1G5 scFv (scFv, V domains shown)
VH: B3 VH with S28N, S30T, N31T, Y32S, S52Y, W54D, G55T, S56A, T57Y, N59D
VL: B1 VL
notes: phage clone supernatant
B15: 1G8-1E6 scFv (scFv, V domains shown)
VH: B1 VH with T28I, D30T, S31D, A33S, K52Y, T54D, D55G, D56W, G57E, S59D
VL: B1 VL
notes: phage clone supernatant
B16: 1G8-2B5 scFv (scFv, V domains shown)
VH: B3 VH with S28N, S30G, S52K, A53S, W54H, G55D, N58S, N59H
VL: B1 VL
notes: phage clone supernatant
B17: 1G8-1E8 scFv (scFv, V domains shown)
VH: B8 VH with D27F, S30D, S31G, N32Y, Y52S, G53S, G54Y, D57N, T58P
VL: B1 VL
notes: phage clone supernatant
B18: 1G8-2A1 scFv (scFv, V domains shown)
VH: B1 VH with T28S, S31G, Y32F, K52S, T53G, T54H, D56W, G57S, K58S
VL: B1 VL
notes: phage clone supernatant
B19: 1G8-2D6 scFv (scFv, V domains shown)
VH: B3 VH with Y27F, S30D, N31G, W54H, G55S, S56W, T57N, N58K, N59D
VL: B1 VL
notes: phage clone supernatant
B20: 1G8-2B6 scFv (scFv, V domains shown)
VH: B3 VH with Y27G, S30G, N31G, S52Y, W54Y, G55K, T57E, N59D
VL: B1 VL
notes: phage clone supernatant
B21: 1G8-2C7 scFv (scFv, V domains shown)
VH: B3 VH with S30T, Y32F, A53Q, W54D, S56G, T57N, N58K
VL: B1 VL
notes: phage clone supernatant
B22: 1G8-2B3 scFv (scFv, V domains shown)
VH: B8 VH with D27Y, T28N, S30T, S31T, N32S, G53Q, G54D, W56S, D57T
VL: B1 VL
notes: phage clone supernatant
B23: 1G8-1G9 scFv (scFv, V domains shown)
VH: B1 VH with Y27F, T28N, D30G, S31D, Y32F, K52Y, T53S, T54G, G57N, K58A
VL: B1 VL
notes: phage clone supernatant
B24: 1G8-1G12 scFv (scFv, V domains shown)
VH: B8 VH with D27Y, T28N, S30T, N32S, G53S, G54I, W56G, D57N
VL: B1 VL
notes: phage clone supernatant
B25: 1G8-1C10 scFv (scFv, V domains shown)
VH: EVQLVESGGGLVQPGGSLRLSCAASGFNFSDYSMSWVRQAPGKGLEWVSRIKASSGGSDYADSVKGRFTISRDNSKNTLYLQMNSLRAEDTAVYYCARQTEDRSYGYDLDYWGQGTLVTVSS
VL: B1 VL
notes: phage clone supernatant
B26: 1G8-1B11 scFv (scFv, V domains shown)
VH: B3 VH with S28N, R50A, S52D, W54S, S56G, T57D, N58T, N59R
VL: B1 VL
notes: phage clone supernatant
B27: 1G8-2B10 scFv (scFv, V domains shown)
VH: B3 VH with Y27F, S30T, Y32N, S52D, A53T, W54I, S56G, N58S, N59S
VL: B1 VL
notes: phage clone supernatant
B28: 1G8-1G3 scFv (scFv, V domains shown)
VH: B25 VH with S30G, D31T, S33A, K52S, A53G, S54I, G56A, S58T, D59N
VL: B1 VL
notes: phage clone supernatant
B29: 1G8-1D7 scFv (scFv, V domains shown)
VH: B3 VH with Y27G, R50W, S52D, A53T, W54T, G55S, S56A, T57Y, N58A, N59S
VL: B1 VL
notes: phage clone supernatant
B30: 1G8-1E12 scFv (scFv, V domains shown)
VH: B8 VH with D27F, T28N, S30T, N32Y, Y52S, G53A, G54H, S55K, T58A, D59S
VL: B1 VL
notes: phage clone supernatant
B31: 1G8-1H6 scFv (scFv, V domains shown)
VH: B25 VH with D31G, Y32F, S33A, K52Y, A53P, S54T, G56S, G57E
VL: B1 VL
notes: phage clone supernatant
B32: 1G8-1E10 scFv (scFv, V domains shown)
VH: B3 VH with Y27D, N31T, A53G, W54S, S56D, T57G, N58K, N59D
VL: B1 VL
notes: phage clone supernatant
B33: 1G8-2A7 scFv (scFv, V domains shown)
VH: B3 VH with N31D, W54Y, S56W, T57G, N58K, N59S
VL: B1 VL
notes: phage clone supernatant

biological target: T1, human Nectin-4 extracellular antigen hNectin-4-His (human, UniProt Q96NY8 32-349); assay: ELISA, phage scFv supernatant 1:50
T1 construct: C-terminal 8xHis tag included
T1 sequence: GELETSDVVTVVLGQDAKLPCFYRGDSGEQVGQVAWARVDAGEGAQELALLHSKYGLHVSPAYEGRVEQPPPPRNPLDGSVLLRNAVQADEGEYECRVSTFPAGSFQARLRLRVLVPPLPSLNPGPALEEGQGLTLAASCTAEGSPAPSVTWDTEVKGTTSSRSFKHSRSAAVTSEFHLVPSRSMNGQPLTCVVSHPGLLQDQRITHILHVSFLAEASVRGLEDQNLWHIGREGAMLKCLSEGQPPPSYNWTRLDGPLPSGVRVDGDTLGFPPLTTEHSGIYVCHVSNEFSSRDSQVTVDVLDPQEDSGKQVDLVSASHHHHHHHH
Protocol: The supernatants were diluted 50-fold, and the binding OD values of the diluted supernatants to hNectin-4-His were measured by ELISA. The samples were serially 3-fold diluted, and the EC₅₀ titer for the binding of the supernatants to the antigen was measured by ELISA. […] The light chain variable region sequence is set forth in SEQ ID NO: 25. The OD value is the measurement of ELISA, and the EC₅₀ value denotes the EC₅₀ value of the binding activity titer of the supernatant to the antigen.

Q: With B1 as the binder, how does the OD value read?
A: 1.57 OD

Q: Which OD value does the source give for B2 here?
A: 1.54 OD

Q: With B3 as the binder, how does the OD value read?
A: 1.56 OD

Q: For B4, which OD value is on record?
A: 1.6 OD

Q: Which OD value does the source give for B5 here?
A: 1.59 OD

Q: For B6, which OD value is on record?
A: 1.58 OD

Q: With B7 as the binder, how does the OD value read?
A: 1.59 OD

Q: With B8 as the binder, how does the OD value read?
A: 1.54 OD

Q: How did the OD value turn out when B9 was run?
A: 1.54 OD

Q: B10 was tested. Which OD value did it give?
A: 1.5 OD

Q: For B11, which OD value is on record?
A: 1.61 OD

Q: Which OD value does the source give for B12 here?
A: 1.4 OD

Q: Which OD value does the source give for B13 here?
A: 1.58 OD

Q: Which OD value does the source give for B14 here?
A: 1.48 OD

Q: How did the OD value turn out when B15 was run?
A: 1.48 OD

Q: How did the OD value turn out when B16 was run?
A: 1.58 OD

Q: Which OD value does the source give for B17 here?
A: 1.55 OD

Q: Which OD value does the source give for B18 here?
A: 1.6 OD

Q: How did the OD value turn out when B19 was run?
A: 1.63 OD

Q: B20 was tested. Which OD value did it give?
A: 1.56 OD

Q: For B21, which OD value is on record?
A: 1.58 OD

Q: How did the OD value turn out when B22 was run?
A: 1.57 OD

Q: With B23 as the binder, how does the OD value read?
A: 1.55 OD

Q: How did the OD value turn out when B24 was run?
A: 1.55 OD

Q: With B25 as the binder, how does the OD value read?
A: 1.61 OD

Q: B26 was tested. Which OD value did it give?
A: 1.58 OD

Q: How did the OD value turn out when B27 was run?
A: 1.56 OD

Q: How did the OD value turn out when B28 was run?
A: 1.58 OD

Q: Which OD value does the source give for B29 here?
A: 1.49 OD

Q: Which OD value does the source give for B30 here?
A: 1.61 OD

Q: Which OD value does the source give for B31 here?
A: 1.58 OD

Q: Which OD value does the source give for B32 here?
A: 1.6 OD

Q: With B33 as the binder, how does the OD value read?
A: 1.6 OD
